According to patent publication US20170173105A1, “AUTOASSEMBLING PEPTIDES FOR THE TREATMENT OF PULMONARY LEAKAGE” (3-D MATRIX, LTD., priority 2014, published 2017):

Assays:
Format in all cases: physicochemical
[1] = pH and appearance of 2.5% peptide solutions after adding 0.1 N NaOH
Protocol: To adjust the pH level of the peptide solutions by way of example, 0.1 N NaOH was added to 2 mL of 2.5% peptide solutions and their pH and appearance were measured.

[2] = Rheological properties of pH adjusted peptide solutions and hydrogels (stress/frequency sweep); settings: at pH 3.4 (IEIK13 adjusted to 3.7); KLD12 1%, IEIK13 1%, PuraMatrix 1% and 2.5%
Protocol: Based on the visual observation of the effect of pH level on the properties of the peptide solutions, the effect on the rheological properties of the peptide solutions after adjusting their pH level to 3.4 (PuraMatrix® and KLD12) or 3.7 (IEIK13) was evaluated. If the pH levels of peptide solutions are higher than 3.5 (PuraMatrix® and KLD12) or 3.7 (IEIK13), the peptide solution began phase separation becoming cloudy. The rheological properties of PuraMatrix®, KLD12 and IEIK13 solutions were higher at pH 3.4. The results are shown in FIG. 2 for KLD12 1%, FIG. 3 for IEIK13 1%, and FIGS. 4-5 for PuraMatrix® 1% and 2.5%, respectively. Stress sweep tests were performed at 10 rad/s. Frequency sweep tests were performed at 1 Pa.
Based on the results of the effect on the rheological properties of the peptide solutions after adjusting their pH level to 3.4 (PuraMatrix® and KLD12) or 3.7 (IEIK13), the effect on the rheological properties of the peptide solutions at various pH levels was evaluated. […] The rheological properties of peptides were evaluated at various concentrations using a rheometer (DHR-1, TA Instruments) with 20 mm plates. The results are shown in FIG. 6A for PuraMatrix® 2.5% solution and FIG. 6B for IEIK13 1.5% solution, respectively. Frequency sweep tests were performed from 1 rad/sec to 10 rad/sec at 1 Pa and the storage modulus at 1 rad/sec was selected for data.
Based on the results of the effect on the rheological properties of the peptide solutions after adjusting their pH level, the effect on the rheological properties of the peptide hydrogels at various pH after DMEM treatment was evaluated and compared to the effect on the rheological properties of the peptide solutions at various pH before DMEM treatment. […] The results are shown in FIGS. 7A-7B for PuraMatrix® and FIGS. 8A-8B for IEIK (SEQ ID NO: 5), respectively. Frequency sweep tests were performed from 1 rad/sec to 10 rad/sec at 1 Pa and the storage modulus at 1 rad/sec was selected for data.

[3] = Appearance of 1.5% peptide solutions with various salts at room temperature; settings: for Appearance: KLD12 solution, room temperature
Protocol: The effect of salt ionic strength level on the properties of peptide solutions was evaluated to identify optimized salt ionic strength levels for the peptides as described herein. Increasing the salt ionic strength level of PuraMatrix® and other peptides may generally improve its function and mechanical strength for various clinical applications. To adjust the salt ionic strength of the peptide solutions by way of example, various salt buffer solutions including NaCl, KCl, MgCl2, CaCl2 and DPBS (10×) were added to 2 mL of 1.5% peptide solutions.

[4] = Gelation of peptide solutions on saline buffer treatment (time sweep); settings: saline buffer (0.15 M of NaCl); IEIK13 1.5%, KLD12 1.5%, PuraMatrix 2.5%
Protocol: The effect of salt ionic strength level surrounding peptide solution on the properties of peptide solutions was evaluated to identify the possibility of peptide gelation when the peptide solution is placed into the environment where salt ionic strength level is high. […] Without pH effect, the effect of saline treatment on gelation of peptide solutions were evaluated. […] This is because IEIK13 is much more sensitive to salt ionic strength levels. Fast gelation of IEIK13 at the salt ionic strength level similar to body fluid isotonic salt level may generally improve its function and gelation speed for various clinical applications. The results are shown in FIG. 19 for IEIK13, KLD12 and PuraMatrix® solutions. Time sweep tests were performed at 1 rad/sec and at 1 Pa with 20 mm plates and 500 μm gap distance. […]

[5] = 0.1 N NaOH 0 μL/mL added in 2.5% solution, conc. 2.5%
[6] = 0.1 N NaOH 50 μL/mL added in 2.5% solution, conc. 2.38%
[7] = 0.1 N NaOH 100 μL/mL added in 2.5% solution, conc. 2.27%
[8] = 0.1 N NaOH 300 μL/mL added in 2.5% solution, conc. 1.92%
[9] = pH increase up to approximately 3.5 or less with 0.1 N NaOH, 2.5% solutions

Which results are given for “Lys-Leu-Asp-Leu-Lys-Leu-Asp-Leu-Lys-Leu-Asp-Leu (Ac-KLDLKLDLKLDL-NH2) [KLD12]”?
Appearance [1, 5]: Clear, thick gel; Peptide solution pH [1, 5]: 2.1; Appearance [1, 6]: Clear, thick gel; Peptide solution pH [1, 6]: 2.4; Appearance [1, 7]: Clear, thick gel; Peptide solution pH [1, 7]: 2.6; Peptide solution pH ([1]; 0.1 N NaOH 150 μL/mL added in 2.5% solution, conc. 2.17%): 2.9; Peptide solution pH ([1]; 0.1 N NaOH 200 μL/mL added in 2.5% solution, conc. 2.08%): 3.3; Peptide solution pH ([1]; 0.1 N NaOH 225 μL/mL added in 2.5% solution, conc. 2.04%): 3.6; Peptide solution pH ([1]; 0.1 N NaOH 250 μL/mL added in 2.5% solution, conc. 2.0%): 4.0; Appearance [1, 8]: Cloudy, brittle gel; Peptide solution pH [1, 8]: 4.7; Peptide solution pH ([1]; 0.1 N NaOH 350 μL/mL added in 2.5% solution, conc. 1.85%): 5.2; Peptide solution pH ([1]; last line per peptide, NaOH volume and conc. not given): 7.0; apparent stiffness on pH increase [1, 9]: increased; color of solution on pH increase [1, 9]: did not change the clear color; rheological properties of solutions after pH adjustment [2]: higher; Appearance ([3]; CaCl2 0 M, ionic strength 0 M, conc. 1.5%): Clear, thick gel; Appearance ([3]; CaCl2 0.05 M, ionic strength 0.15 M, conc. 1.48%): Clear, thick, stiffer gel; Appearance ([3]; CaCl2 0.067 M, ionic strength 0.2 M, conc. 1.47%): Clear, thick, stiffer gel; Appearance ([3]; CaCl2 0.083 M, ionic strength 0.25 M, conc. 1.46%): Clear, thick, stiffer gel; Appearance ([3]; CaCl2 0.1 M, ionic strength 0.3 M, conc. 1.45%): Clear, thick, stiffer gel; Appearance ([3]; CaCl2 0.117 M, ionic strength 0.35 M, conc. 1.44%): Clear, thick, stiffer gel; Appearance ([3]; CaCl2 0.133 M, ionic strength 0.4 M, conc. 1.43%): Slightly cloudy, thick, stiffer gel; Appearance ([3]; CaCl2 0.15 M, ionic strength 0.45 M, conc. 1.43%): Slightly cloudy, brittle gel; Appearance ([3]; CaCl2 0.167 M, ionic strength 0.5 M, conc. 1.42%): Cloudy, phase-separated; Appearance ([3]; KCl 0 M, ionic strength 0 M, conc. 1.5%): Clear, thick gel; Appearance ([3]; KCl 0.05 M, ionic strength 0.5 M, conc. 1.48%): Clear, thick, stiffer gel; Appearance ([3]; KCl 0.1 M, ionic strength 0.1 M, conc. 1.45%): Clear, thick, stiffer gel; Appearance ([3]; KCl 0.15 M, ionic strength 0.15 M, conc. 1.43%): Clear, thick, stiffer gel; Appearance ([3]; KCl 0.2 M, ionic strength 0.2 M, conc. 1.4%): Clear, thick, stiffer gel; Appearance ([3]; KCl 0.25 M, ionic strength 0.25 M, conc. 1.38%): Clear, thick, stiffer gel; Appearance ([3]; KCl 0.3 M, ionic strength 0.3 M, conc. 1.35%): Slightly cloudy, thick, stiffer gel; Appearance ([3]; KCl 0.35 M, ionic strength 0.35 M, conc. 1.32%): Slightly cloudy, brittle gel; Appearance ([3]; KCl 0.4 M, ionic strength 0.4 M, conc. 1.3%): Cloudy, phase-separated; Appearance ([3]; MgCl2 0 M, ionic strength 0 M, conc. 1.5%): Clear, thick gel; Appearance ([3]; MgCl2 0.05 M, ionic strength 0.15 M, conc. 1.48%): Clear, thick, stiffer gel; Appearance ([3]; MgCl2 0.067 M, ionic strength 0.2 M, conc. 1.47%): Clear, thick, stiffer gel; Appearance ([3]; MgCl2 0.083 M, ionic strength 0.25 M, conc. 1.46%): Clear, thick, stiffer gel; Appearance ([3]; MgCl2 0.1 M, ionic strength 0.3 M, conc. 1.45%): Clear, thick, stiffer gel; Appearance ([3]; MgCl2 0.117 M, ionic strength 0.35 M, conc. 1.44%): Clear, thick, stiffer gel; Appearance ([3]; MgCl2 0.133 M, ionic strength 0.4 M, conc. 1.43%): Slightly cloudy, thick, stiffer gel; Appearance ([3]; MgCl2 0.15 M, ionic strength 0.45 M, conc. 1.43%): Slightly cloudy, brittle gel; Appearance ([3]; MgCl2 0.167 M, ionic strength 0.5 M, conc. 1.42%): Cloudy, phase-separated; Appearance ([3]; NaCl 0 M, ionic strength 0 M, conc. 1.5%): Clear, thick gel; Appearance ([3]; NaCl 0.05 M, ionic strength 0.5 M, conc. 1.48%): Clear, thick, stiffer gel; Appearance ([3]; NaCl 0.1 M, ionic strength 0.1 M, conc. 1.45%): Clear, thick, stiffer gel; Appearance ([3]; NaCl 0.15 M, ionic strength 0.15 M, conc. 1.43%): Clear, thick, stiffer gel; Appearance ([3]; NaCl 0.2 M, ionic strength 0.2 M, conc. 1.4%): Clear, thick, stiffer gel; Appearance ([3]; NaCl 0.25 M, ionic strength 0.25 M, conc. 1.38%): Clear, thick, stiffer gel; Appearance ([3]; NaCl 0.3 M, ionic strength 0.3 M, conc. 1.35%): Slightly cloudy, thick, stiffer gel; Appearance ([3]; NaCl 0.35 M, ionic strength 0.35 M, conc. 1.32%): Slightly cloudy, brittle gel; Appearance ([3]; NaCl 0.4 M, ionic strength 0.4 M, conc. 1.3%): Cloudy, phase-separated; apparent stiffness on salt ionic strength increase ([3]; up to the ionic strength at which solutions stay clear): increased; gelation after saline buffer treatment [4]: no or negligible gelation
